Target: T1, low-density lipoprotein receptor-related protein 1 (LRP1) (UniProt Q07954 20-4544)
T1 construct: low-density lipoprotein receptor-related protein 1 (LRP1), full length, purified from placenta; also called full-length LRP1; purified LRP1
Assay: SPR; Biacore 3000; full-length LRP1 amine-coupled to a CM5 chip; sFRP-5 (1.6-100 nmol/l) flowed over at 20 ul/min, 25°C, in HBS-P (0.01 M HEPES pH 7.4, 0.15 M NaCl, 0.005% P20) with 1 mM CaCl2; Req from a pseudo-first order fit with a nonspecific component, plotted against concentration and fitted to a single class of sites
Details: both partners purified

T1 sequence (Q07954 20-4544): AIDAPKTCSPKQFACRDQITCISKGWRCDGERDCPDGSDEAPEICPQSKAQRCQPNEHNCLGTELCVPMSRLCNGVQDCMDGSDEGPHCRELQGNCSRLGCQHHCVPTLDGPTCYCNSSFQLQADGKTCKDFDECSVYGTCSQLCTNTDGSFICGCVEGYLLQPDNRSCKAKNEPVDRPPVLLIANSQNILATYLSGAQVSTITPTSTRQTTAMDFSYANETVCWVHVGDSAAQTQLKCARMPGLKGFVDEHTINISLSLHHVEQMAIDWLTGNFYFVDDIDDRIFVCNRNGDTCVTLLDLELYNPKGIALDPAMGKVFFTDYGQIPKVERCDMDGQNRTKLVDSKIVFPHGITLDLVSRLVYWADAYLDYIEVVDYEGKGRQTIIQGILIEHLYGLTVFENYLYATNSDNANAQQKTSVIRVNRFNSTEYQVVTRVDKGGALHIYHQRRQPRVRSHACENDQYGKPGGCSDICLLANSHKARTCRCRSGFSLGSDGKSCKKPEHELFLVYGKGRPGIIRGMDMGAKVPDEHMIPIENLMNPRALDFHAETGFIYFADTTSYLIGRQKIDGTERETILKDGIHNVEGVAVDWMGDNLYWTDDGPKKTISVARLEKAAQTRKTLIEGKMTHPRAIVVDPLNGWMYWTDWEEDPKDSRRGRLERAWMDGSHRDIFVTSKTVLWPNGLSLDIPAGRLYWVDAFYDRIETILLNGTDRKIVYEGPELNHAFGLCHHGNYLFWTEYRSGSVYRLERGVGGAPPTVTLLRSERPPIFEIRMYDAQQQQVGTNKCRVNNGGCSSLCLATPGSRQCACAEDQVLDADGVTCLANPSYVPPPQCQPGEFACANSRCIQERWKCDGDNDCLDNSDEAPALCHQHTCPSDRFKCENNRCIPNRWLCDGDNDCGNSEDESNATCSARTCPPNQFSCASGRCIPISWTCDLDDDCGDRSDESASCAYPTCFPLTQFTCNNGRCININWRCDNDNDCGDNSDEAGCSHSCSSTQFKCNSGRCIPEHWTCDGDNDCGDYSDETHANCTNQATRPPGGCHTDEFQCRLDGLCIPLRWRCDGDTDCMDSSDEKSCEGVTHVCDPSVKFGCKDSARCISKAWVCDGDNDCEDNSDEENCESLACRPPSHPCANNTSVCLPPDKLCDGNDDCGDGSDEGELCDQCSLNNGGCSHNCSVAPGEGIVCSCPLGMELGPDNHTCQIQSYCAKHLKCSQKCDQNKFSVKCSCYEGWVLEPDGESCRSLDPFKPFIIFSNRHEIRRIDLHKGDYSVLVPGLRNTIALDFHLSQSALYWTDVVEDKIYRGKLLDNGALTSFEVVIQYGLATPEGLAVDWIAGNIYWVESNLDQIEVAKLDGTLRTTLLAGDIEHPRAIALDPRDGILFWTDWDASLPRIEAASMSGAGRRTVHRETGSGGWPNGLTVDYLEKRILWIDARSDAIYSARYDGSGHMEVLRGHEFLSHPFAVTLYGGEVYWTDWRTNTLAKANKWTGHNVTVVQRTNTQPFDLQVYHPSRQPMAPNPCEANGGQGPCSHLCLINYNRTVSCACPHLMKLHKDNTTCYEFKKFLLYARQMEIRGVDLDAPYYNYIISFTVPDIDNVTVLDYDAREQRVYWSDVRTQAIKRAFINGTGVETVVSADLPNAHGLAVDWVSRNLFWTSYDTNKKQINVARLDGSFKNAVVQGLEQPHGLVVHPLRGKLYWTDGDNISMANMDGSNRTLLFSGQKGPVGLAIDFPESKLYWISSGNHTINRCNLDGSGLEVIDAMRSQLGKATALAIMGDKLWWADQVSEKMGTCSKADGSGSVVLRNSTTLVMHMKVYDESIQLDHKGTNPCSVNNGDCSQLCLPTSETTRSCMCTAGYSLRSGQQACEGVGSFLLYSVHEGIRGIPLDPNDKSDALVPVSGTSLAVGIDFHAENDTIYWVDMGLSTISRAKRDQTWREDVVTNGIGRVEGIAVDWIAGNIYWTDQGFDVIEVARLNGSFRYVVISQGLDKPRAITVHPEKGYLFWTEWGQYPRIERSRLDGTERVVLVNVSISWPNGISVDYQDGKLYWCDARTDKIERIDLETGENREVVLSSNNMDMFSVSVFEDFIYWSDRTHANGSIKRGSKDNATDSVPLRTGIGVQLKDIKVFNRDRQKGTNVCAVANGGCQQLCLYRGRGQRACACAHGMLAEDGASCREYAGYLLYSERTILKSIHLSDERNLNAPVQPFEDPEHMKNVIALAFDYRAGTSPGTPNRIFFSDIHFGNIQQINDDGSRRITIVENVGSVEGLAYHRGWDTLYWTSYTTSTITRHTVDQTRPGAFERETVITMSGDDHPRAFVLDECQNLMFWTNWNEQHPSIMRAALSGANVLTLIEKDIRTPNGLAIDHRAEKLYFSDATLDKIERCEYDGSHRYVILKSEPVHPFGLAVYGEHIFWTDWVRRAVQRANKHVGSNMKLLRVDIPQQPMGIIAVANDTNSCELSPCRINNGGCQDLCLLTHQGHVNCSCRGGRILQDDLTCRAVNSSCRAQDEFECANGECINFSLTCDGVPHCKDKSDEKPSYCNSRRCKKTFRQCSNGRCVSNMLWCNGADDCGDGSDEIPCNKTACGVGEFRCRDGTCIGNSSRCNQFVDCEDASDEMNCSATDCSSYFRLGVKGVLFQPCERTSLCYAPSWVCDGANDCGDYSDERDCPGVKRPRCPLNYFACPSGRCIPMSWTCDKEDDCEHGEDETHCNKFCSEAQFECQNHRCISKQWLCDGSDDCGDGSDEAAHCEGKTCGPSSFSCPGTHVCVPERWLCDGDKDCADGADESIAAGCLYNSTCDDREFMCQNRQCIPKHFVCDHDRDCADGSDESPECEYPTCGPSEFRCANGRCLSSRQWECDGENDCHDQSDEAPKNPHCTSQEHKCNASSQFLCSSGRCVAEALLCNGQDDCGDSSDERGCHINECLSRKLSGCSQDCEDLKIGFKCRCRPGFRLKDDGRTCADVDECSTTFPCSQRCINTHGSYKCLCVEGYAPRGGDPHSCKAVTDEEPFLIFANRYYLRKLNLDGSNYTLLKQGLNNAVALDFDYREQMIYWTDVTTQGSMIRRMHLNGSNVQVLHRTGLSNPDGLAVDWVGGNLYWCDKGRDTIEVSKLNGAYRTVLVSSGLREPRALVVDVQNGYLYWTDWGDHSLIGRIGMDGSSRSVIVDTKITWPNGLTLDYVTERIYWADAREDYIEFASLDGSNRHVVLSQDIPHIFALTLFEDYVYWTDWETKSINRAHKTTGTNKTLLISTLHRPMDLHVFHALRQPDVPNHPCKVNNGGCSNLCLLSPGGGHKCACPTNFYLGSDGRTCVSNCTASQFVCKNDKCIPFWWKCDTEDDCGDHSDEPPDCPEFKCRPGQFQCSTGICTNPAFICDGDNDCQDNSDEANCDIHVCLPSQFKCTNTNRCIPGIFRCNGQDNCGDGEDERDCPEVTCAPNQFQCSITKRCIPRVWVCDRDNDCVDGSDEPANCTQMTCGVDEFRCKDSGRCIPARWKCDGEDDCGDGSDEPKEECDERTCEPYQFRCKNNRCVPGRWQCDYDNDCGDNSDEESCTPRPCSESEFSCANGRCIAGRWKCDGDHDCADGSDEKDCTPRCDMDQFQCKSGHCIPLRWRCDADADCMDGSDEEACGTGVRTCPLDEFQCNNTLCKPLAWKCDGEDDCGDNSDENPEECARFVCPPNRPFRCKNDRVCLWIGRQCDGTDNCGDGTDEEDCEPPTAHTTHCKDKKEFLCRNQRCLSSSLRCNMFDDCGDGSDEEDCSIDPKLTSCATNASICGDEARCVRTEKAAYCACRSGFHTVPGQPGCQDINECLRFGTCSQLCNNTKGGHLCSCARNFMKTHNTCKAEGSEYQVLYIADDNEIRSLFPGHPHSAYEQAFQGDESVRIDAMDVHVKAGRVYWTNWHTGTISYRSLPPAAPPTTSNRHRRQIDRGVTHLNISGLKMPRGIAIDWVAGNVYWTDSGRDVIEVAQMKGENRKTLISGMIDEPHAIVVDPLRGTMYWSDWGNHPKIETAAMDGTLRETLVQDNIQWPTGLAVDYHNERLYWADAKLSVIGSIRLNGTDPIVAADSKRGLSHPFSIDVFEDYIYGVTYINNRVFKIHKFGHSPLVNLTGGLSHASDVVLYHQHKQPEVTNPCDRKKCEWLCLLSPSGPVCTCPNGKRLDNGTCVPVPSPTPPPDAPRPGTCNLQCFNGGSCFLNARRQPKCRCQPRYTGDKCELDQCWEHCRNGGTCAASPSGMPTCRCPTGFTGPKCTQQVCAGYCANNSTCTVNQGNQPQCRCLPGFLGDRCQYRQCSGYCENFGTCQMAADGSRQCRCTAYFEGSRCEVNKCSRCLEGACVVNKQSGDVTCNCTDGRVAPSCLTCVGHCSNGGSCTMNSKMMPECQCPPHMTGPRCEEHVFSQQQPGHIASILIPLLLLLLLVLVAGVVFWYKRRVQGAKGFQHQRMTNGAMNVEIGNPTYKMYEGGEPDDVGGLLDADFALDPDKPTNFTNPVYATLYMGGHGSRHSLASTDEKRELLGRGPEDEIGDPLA

B1: secreted frizzled-related protein 5 (sFRP-5) (ligand, UniProt Q5T4F7 30-317, looked up)
chain: EEYDYYGWQAEPLHGRSYSKPPQCLDIPADLPLCHTVGYKRMRLPNLLEHESLAEVKQQASSWLPLLAKRCHSDTQVFLCSLFAPVCLDRPIYPCRSLCEAVRAGCAPLMEAYGFPWPEMLHCHKFPLDNDLCIAVQFGHLPATAPPVTKICAQCEMEHSADGLMEQMCSSDFVVKMRIKEIKIENGDRKLIGAQKKKKLLKPGPLKRKDTKRLVLHMKNGAGCPCPQLDSLAGSFLVMGRKVDGQLLLMAVYRWDKKNKEMKFAVKFMFSYPCSLYYPFFYGAAEPH
notes: secreted frizzled-related protein 5 (sFRP-5), commercial recombinant protein; source: bought: R&D Systems 6266-SF-050
  Kd: 32 nM

Source: article PMC6247401, “Macrophage LRP1 Promotes Diet-Induced Hepatic Inflammation and Metabolic Dysfunction by Modulating Wnt Signaling” (Mediators of Inflammation, 2018)
